Laboratory results from PMC12170906.

Target: RNAP-SigA holoenzyme (Mycobacterium tuberculosis, UniProt P9WGZ1;P9WGY9;P9WGY7;P9WGI1 1-347;1-1178;1-1316;1-528)
Experiment: EMSA
Details: protein: recombinant; chain copies: 2;1;1;1; blunt

Sequence of RNAP-SigA holoenzyme (P9WGZ1 whole entry, chain 1 of 4): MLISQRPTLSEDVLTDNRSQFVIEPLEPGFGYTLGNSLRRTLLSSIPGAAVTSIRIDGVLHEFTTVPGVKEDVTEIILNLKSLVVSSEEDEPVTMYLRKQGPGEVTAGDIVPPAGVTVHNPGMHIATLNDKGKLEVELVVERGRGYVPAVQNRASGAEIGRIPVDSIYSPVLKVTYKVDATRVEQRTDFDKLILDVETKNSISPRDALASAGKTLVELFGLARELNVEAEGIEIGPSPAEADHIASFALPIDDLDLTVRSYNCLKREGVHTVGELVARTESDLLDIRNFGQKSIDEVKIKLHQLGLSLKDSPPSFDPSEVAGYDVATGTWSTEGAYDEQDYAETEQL
Sequence of RNAP-SigA holoenzyme (P9WGY9 whole entry, chain 2 of 4): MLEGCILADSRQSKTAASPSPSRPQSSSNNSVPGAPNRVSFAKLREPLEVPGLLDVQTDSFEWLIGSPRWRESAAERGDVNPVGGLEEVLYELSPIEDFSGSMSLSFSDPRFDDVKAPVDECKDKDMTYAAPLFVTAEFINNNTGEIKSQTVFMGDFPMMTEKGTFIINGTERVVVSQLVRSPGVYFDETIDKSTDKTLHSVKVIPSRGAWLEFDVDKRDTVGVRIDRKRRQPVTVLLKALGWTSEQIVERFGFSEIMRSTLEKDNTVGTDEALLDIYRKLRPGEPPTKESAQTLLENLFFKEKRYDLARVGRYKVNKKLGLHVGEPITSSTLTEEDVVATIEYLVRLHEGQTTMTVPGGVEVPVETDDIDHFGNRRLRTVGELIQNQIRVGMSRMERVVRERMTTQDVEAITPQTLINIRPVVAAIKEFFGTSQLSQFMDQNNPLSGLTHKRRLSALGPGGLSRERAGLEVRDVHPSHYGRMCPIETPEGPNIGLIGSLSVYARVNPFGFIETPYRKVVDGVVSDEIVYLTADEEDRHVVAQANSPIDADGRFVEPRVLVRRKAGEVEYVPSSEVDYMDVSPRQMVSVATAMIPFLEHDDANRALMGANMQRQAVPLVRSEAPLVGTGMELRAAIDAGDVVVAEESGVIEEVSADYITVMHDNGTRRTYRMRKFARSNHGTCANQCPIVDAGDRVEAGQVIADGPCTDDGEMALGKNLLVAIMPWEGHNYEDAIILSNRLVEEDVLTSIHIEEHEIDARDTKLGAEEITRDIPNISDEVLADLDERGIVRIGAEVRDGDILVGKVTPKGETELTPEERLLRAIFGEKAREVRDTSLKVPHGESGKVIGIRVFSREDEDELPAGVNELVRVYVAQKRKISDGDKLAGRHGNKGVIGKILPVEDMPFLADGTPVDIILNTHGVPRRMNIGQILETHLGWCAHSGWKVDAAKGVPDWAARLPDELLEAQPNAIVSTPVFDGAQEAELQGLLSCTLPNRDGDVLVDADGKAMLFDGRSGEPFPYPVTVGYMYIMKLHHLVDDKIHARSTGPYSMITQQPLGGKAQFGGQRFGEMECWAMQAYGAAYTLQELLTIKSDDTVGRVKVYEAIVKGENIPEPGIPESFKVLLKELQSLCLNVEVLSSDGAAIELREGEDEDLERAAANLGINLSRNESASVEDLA
Sequence of RNAP-SigA holoenzyme (P9WGY7 whole entry, chain 3 of 4): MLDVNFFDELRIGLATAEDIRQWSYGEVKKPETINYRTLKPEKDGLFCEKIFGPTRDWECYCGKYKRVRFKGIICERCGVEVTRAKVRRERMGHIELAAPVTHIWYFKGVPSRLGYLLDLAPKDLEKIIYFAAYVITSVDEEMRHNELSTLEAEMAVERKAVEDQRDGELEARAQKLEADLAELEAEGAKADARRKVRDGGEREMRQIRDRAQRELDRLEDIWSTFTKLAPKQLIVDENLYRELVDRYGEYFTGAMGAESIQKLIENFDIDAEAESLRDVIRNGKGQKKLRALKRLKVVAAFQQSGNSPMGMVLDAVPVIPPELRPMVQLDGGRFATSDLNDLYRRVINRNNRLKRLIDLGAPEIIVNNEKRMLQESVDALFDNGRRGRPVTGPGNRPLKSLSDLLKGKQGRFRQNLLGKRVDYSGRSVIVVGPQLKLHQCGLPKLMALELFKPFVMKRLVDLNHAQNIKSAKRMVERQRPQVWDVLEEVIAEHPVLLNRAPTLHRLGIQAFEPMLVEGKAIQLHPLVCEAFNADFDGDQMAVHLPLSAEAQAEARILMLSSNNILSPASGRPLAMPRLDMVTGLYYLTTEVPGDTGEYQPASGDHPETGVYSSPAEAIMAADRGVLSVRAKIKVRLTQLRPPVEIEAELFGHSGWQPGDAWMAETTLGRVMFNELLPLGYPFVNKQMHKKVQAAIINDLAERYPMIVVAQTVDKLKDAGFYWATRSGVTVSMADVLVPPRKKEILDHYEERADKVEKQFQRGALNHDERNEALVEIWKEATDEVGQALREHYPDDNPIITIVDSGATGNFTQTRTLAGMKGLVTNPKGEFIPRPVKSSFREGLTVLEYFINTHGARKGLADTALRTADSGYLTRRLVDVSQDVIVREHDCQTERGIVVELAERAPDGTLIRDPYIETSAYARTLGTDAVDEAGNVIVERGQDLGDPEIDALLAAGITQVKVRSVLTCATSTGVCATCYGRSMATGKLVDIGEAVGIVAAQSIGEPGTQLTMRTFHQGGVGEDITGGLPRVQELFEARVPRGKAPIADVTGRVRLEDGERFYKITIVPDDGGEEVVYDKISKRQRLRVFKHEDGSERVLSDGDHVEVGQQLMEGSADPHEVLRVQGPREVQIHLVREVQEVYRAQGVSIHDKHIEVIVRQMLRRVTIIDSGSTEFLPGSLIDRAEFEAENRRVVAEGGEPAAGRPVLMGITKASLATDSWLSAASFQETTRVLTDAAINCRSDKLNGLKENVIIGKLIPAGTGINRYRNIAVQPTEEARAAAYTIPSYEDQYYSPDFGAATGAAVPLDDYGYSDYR
Sequence of RNAP-SigA holoenzyme (P9WGI1 whole entry, chain 4 of 4): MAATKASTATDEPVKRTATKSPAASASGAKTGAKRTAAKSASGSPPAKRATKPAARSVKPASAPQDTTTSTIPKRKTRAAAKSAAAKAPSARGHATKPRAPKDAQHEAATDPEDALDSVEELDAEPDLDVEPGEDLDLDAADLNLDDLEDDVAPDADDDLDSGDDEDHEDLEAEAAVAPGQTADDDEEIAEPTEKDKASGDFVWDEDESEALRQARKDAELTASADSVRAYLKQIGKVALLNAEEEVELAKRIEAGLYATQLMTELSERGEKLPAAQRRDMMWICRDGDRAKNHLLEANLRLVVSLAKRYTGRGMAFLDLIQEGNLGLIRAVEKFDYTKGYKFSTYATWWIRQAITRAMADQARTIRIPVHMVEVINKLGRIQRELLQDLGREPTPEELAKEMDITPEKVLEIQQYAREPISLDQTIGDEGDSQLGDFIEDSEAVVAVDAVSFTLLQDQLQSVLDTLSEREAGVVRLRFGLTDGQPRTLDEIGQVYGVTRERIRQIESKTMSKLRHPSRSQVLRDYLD

B1: rrnAP3/ADPr (non-template strand modified) (dsDNA)
DNA 1: CTATGGATGACCGAACCTGGTCTTGACTCCATTGCCGGATTTGTATTAGACTGGCAGGGTCGCCCCGAAGCGGGCGGAAACAAGCAAGCGTGTTGTTTGAGAACTC
DNA 2: GAGTTCTCAAACAACACGCTTGCTTGTTTCCGCCCGCTTCGGGGCGACCCTGCCAGTCTAATACAAATCCGGCAATGGAGTCAAGACCAGGTTCGGTCATCCATAG
modifications: ADP-ribosyl-thymidine on strand 1 (non-template; DarT; positions inferred near -10 in Fig 3A)
B1: binds.
